In the Immune Epitope Database (IEDB):

Assays:
[1] = target: HLA-A*02:01; assay: IEDB peptide-MHC binding, purified MHC/competitive/fluorescence; ≥ and ≤ were set here for values at or beyond the usual limits of such assays
[2] = target: HLA-A*11:01; assay: as above
[3] = target: HLA-B*15:01; assay: as above
[4] = target: HLA-A*03:01; assay: as above
[5] = target: HLA-B*08:01; assay: as above; settings: source organism: Zaire ebolavirus
[6] = target: HLA-A*02:16; assay: IEDB peptide-MHC binding, purified MHC/direct/fluorescence; filed as Kd, often an IC50 or EC50 that approximates it; ≥ and ≤ were set here for values at or beyond the usual limits of such assays
[7] = target: HLA-A*02:19; assay: as above
[8] = target: HLA-A*02:12; assay: as above
[9] = target: HLA-A*03:01; assay: as above
[10] = target: HLA-A*02:11; assay: as above
[11] = target: HLA-A*02:03; assay: as above
[12] = target: HLA-B*51:01; assay: IEDB peptide-MHC binding, purified MHC/competitive/fluorescence; filed as Kd, often an IC50 or EC50 that approximates it; ≥ and ≤ were set here for values at or beyond the usual limits of such assays
[13] = target: HLA-B*39:01; assay: as above
[14] = target: HLA-B*18:01; assay: as above
[15] = target: HLA-B*08:01; assay: as above
[16] = target: HLA-A*02:01; assay: as above
[17] = target: HLA-A*69:01; assay: as above
[18] = target: HLA-B*46:01; assay: as above
[19] = target: HLA-A*26:01; assay: as above
[20] = target: HLA-B*15:01; assay: as above; settings: source organism: Araucaria virus
[21] = target: HLA-B*57:01; assay: as above
[22] = target: HLA-B*27:03; assay: as above
[23] = target: HLA-A*24:03; assay: IEDB peptide-MHC binding, purified MHC/direct/fluorescence; filed as Kd, often an IC50 or EC50 that approximates it; ≥ and ≤ were set here for values at or beyond the usual limits of such assays; settings: source organism: Zaire ebolavirus
[24] = target: HLA-B*58:01; assay: as above; settings: source organism: Zaire ebolavirus
[25] = target: HLA-B*15:01; assay: as above; settings: source organism: Zaire ebolavirus
[26] = target: HLA-A*68:02; assay: as above; settings: source organism: Zaire ebolavirus
[27] = target: HLA-A*24:02; assay: IEDB peptide-MHC binding, purified MHC/competitive/fluorescence; ≥ and ≤ were set here for values at or beyond the usual limits of such assays; settings: source organism: Zaire ebolavirus
[28] = target: HLA-B*15:17; assay: IEDB peptide-MHC binding, purified MHC/competitive/fluorescence; filed as Kd, often an IC50 or EC50 that approximates it; ≥ and ≤ were set here for values at or beyond the usual limits of such assays; settings: source organism: Zaire ebolavirus
[29] = target: HLA-A*01:01; assay: IEDB peptide-MHC binding, purified MHC/competitive/fluorescence; ≥ and ≤ were set here for values at or beyond the usual limits of such assays
[30] = target: HLA-A*02:16; assay: IEDB peptide-MHC binding, purified MHC/competitive/fluorescence; filed as Kd, often an IC50 or EC50 that approximates it; ≥ and ≤ were set here for values at or beyond the usual limits of such assays; settings: source organism: Desulfatibacillum alkenivorans AK-01
[31] = target: HLA-A*02:19; assay: as above; settings: source organism: Desulfatibacillum alkenivorans AK-01
[32] = target: HLA-A*02:12; assay: as above; settings: source organism: Desulfatibacillum alkenivorans AK-01
[33] = target: HLA-A*02:11; assay: as above; settings: source organism: Desulfatibacillum alkenivorans AK-01
[34] = target: HLA-A*02:06; assay: as above; settings: source organism: Desulfatibacillum alkenivorans AK-01
[35] = target: HLA-A*02:03; assay: as above; settings: source organism: Desulfatibacillum alkenivorans AK-01
[36] = target: HLA-B*07:02; assay: IEDB peptide-MHC binding, purified MHC/competitive/fluorescence; ≥ and ≤ were set here for values at or beyond the usual limits of such assays
[37] = source organism: Vaccinia virus Copenhagen
[38] = source organism: Zaire ebolavirus
[39] = source organism: Araucaria virus
[40] = source organism: Sudan ebolavirus
[41] = source organism: Desulfatibacillum alkenivorans AK-01

AIITPIVFY
IC50 [1, 37]: ≥ 122 µM | IC50 [2, 37]: 0.941 µM | IC50 [3, 37]: 6.37 µM | IC50 [4, 37]: ≥ 153 µM

EGHGFRFEV
IC50 [5]: 69.3 µM | IC50 [1, 38]: 28.1 µM

ELRQLAQSL
Kd ([6]; source organism: Choclo virus): ≥ 20 µM | Kd ([7]; source organism: Choclo virus): ≥ 20 µM | Kd ([8]; source organism: Choclo virus): ≥ 20 µM | Kd ([9]; source organism: Choclo virus): ≥ 20 µM | Kd ([10]; source organism: Choclo virus): ≥ 20 µM | Kd ([11]; source organism: Choclo virus): ≥ 20 µM | Kd [12, 39]: ≥ 20 µM | Kd [13, 39]: ≥ 20 µM | Kd [14, 39]: ≥ 20 µM | Kd [15, 39]: 0.156 µM | Kd [16, 39]: ≥ 20 µM | Kd [17, 39]: ≥ 20 µM | Kd [18, 39]: ≥ 20 µM | Kd [19, 39]: ≥ 20 µM | Kd [20]: ≥ 20 µM | Kd [21, 39]: ≥ 20 µM | Kd [22, 39]: ≥ 20 µM

GLIQYPTAW
Kd [6, 38]: ≥ 20 µM | Kd [23]: ≥ 20 µM | Kd [7, 38]: ≥ 20 µM | Kd [8, 38]: ≥ 20 µM | Kd [24]: 0.5 µM | Kd [25]: 2.2 µM | Kd [26]: ≥ 20 µM | Kd [9, 38]: ≥ 20 µM | Kd [10, 38]: ≥ 20 µM | Kd [11, 38]: ≥ 20 µM | IC50 [27]: 13.2 µM | IC50 [1, 38]: 3.1 µM | IC50 [3, 38]: ≥ 109 µM | Kd [12, 38]: ≥ 20 µM | Kd [13, 38]: ≥ 20 µM | Kd [14, 38]: ≥ 20 µM | Kd [16, 38]: ≥ 20 µM | Kd [17, 38]: ≥ 20 µM | Kd [18, 38]: ≥ 20 µM | Kd [19, 38]: ≥ 20 µM | Kd [28]: ≥ 20 µM | Kd [21, 38]: ≥ 20 µM | Kd [22, 38]: ≥ 20 µM

GQHIEGRQT
IC50 [3, 38]: ≥ 148 µM

ISDRATRKY
IC50 [2, 40]: 18.8 µM | IC50 [29, 40]: 1.89 µM | IC50 [3, 40]: 57.6 µM | IC50 [4, 40]: 38.6 µM

KLERRMENL
Kd ([15]; source organism: Influenza A virus (A/Osaka/930/88(H1N1))): ≥ 20 µM

KLGKAGYVV
Kd [30]: 0.00177 µM | Kd [31]: 0.117 µM | Kd [32]: 0.0235 µM | Kd [16, 41]: 0.384 µM | Kd [17, 41]: ≥ 20 µM | Kd [33]: 0.0013 µM | Kd [34]: 0.00192 µM | Kd [35]: 0.00229 µM

LFQRTFSIP
IC50 [27]: 1.04 µM | IC50 [5]: ≥ 270 µM | IC50 [1, 38]: ≥ 72.9 µM

MVIFRLMRT
IC50 [5]: ≥ 77.6 µM | IC50 [1, 38]: 0.478 µM | IC50 [2, 38]: ≥ 177 µM | IC50 [4, 38]: ≥ 96.6 µM

RSRRQTNTK
IC50 [2, 40]: 1.47 µM | IC50 [4, 40]: 2.27 µM | IC50 [36, 40]: 8.84 µM

STSPRMLTP
IC50 [27]: 69.9 µM | IC50 [2, 38]: 44.1 µM | IC50 [36, 38]: ≥ 168 µM

VIFRLMRTN
IC50 [27]: ≥ 150 µM | IC50 [1, 38]: 42.7 µM | IC50 [2, 38]: ≥ 90.6 µM | IC50 [3, 38]: ≥ 175 µM | IC50 [4, 38]: 7.47 µM

VTLDGQQFY
IC50 [27]: ≥ 192 µM | IC50 [1, 38]: ≥ 226 µM | IC50 [2, 38]: 4.92 µM | IC50 [29, 38]: 3.88 µM | IC50 [3, 38]: 53.6 µM | IC50 [4, 38]: ≥ 105 µM

WPVMNHKNK
IC50 [2, 38]: ≥ 185 µM | IC50 [4, 38]: ≥ 180 µM | IC50 [36, 38]: 53.1 µM
